# Laboratory results from patent publication US20120142040.
# Test system: H3K4me2-biotin peptide (1ARTKme2QTARKSTGGKAPRKQLYKbiotin)
# Sequence (chain, as listed by the source): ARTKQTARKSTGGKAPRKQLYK
substance,measurement,value
GST-LSD1 (prepared in-house),"shift of the mass spectra after the demethylase assay (MassSQUIRM, MALDI mass spectrometry)","Upon addition of LSD1, we observed a shift of spectra to greater mass, indicating a mixed population of methylation states"
